Results: paper PMC11510448

Experiments:
[1] = biological target: human Cu/Zn Superoxide Dismutase 1, A4V variant (Flag-SOD1-6His) (human) (UniProt P00441); assay: SEC; gel filtration of the Ni-NTA eluate on a custom-made calibrated Sephacryl S-200 column (1.2 x 100 cm), TBS pH 7.4, UV detection at 280 nm
[2] = biological target: human Cu/Zn Superoxide Dismutase 1, A4V variant (Flag-SOD1-6His) (human) (UniProt P00441); assay: native gel or EMSA; Native-PAGE of selected gel filtration fractions, SDS-free 10% gel, samples not boiled, run at RT, Coomassie stain; ESTDZ2 (ca. 28 kDa) as size standard

For “human Cu/Zn Superoxide Dismutase 1, A4V variant (Flag-SOD1-6His) (from UniProt P00441 6-154) (enzyme)”, the stoichiometry N [1] was 2 and the stoichiometry N [2] was 2.
